According to PMC7532196:

Columns and labels:
Assay in all cases: EMSA
Conditions in all cases: EMSA: 30 ng probe in 20 ul, 10 mM Tris-HCl pH 7.4, 50 mM KCl, 5 mM MgCl2, 10% glycerol, room temperature 30 min, 6% PAGE
[1] = molecular target: T1, PSPPH_3297 (Pseudomonas savastanoi pv. phaseolicola 1448A (P. syringae)) (UniProt Q48GM7)
T1 sequence: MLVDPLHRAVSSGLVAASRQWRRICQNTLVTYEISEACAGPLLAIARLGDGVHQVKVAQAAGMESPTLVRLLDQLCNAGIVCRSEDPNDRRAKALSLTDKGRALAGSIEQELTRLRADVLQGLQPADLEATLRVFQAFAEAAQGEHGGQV

[2] = molecular target: T2, PcaQ (Pseudomonas savastanoi pv. phaseolicola 1448A (P. syringae)) (UniProt Q48JW3)
T2 sequence: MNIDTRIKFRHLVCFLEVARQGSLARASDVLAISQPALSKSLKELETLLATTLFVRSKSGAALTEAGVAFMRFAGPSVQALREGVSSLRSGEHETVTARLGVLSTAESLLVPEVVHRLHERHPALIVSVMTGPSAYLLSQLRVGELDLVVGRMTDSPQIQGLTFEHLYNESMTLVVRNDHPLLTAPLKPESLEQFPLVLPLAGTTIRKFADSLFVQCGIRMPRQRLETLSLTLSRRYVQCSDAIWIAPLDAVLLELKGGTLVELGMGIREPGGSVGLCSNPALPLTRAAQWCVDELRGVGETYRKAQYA

[3] = molecular target: T3, MetR (Pseudomonas savastanoi pv. phaseolicola 1448A (P. syringae)) (UniProt Q48EZ0)
T3 sequence: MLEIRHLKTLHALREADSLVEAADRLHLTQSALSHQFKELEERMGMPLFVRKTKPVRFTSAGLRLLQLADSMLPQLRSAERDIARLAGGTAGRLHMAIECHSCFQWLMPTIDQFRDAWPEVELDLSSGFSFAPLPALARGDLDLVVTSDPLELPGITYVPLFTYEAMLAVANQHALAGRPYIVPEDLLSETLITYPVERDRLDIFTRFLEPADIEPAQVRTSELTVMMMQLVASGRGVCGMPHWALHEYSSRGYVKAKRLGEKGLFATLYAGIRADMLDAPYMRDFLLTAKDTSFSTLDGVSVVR

Row | Sequence | binding [3] | also measured
1 | TCTACGCCCCCTCAAAAAACCCTTTCGGGCGTCCCTGCAACCCAAAAAGCCCCACTGGGCAGTTACGGGTTGACTGTAAGAACTTGTTACGAGATATTAGTTAGCATACTACTAATATCCTCCCTAACAATATTGTTCCTAACTAAATTGTTCACGACTCAG (double strand) [PSPPH_3297 promoter] |  | binding [1]: binds
2 | ACAATTAGTTGAATAATTTCCTTGGATATGAGGAAGGCGGGCTACAGGTGAACGTATAAAAAATCATGGTTTTAGTTATGCATAACCATGAAAATAAAGGAATTTTTATTAAATGTTGGTATTAATCAAAGGCACGTTTAATCACGCCGTCTA (double strand) [katB promoter] |  | binding [2]: binds
3 | TCAAGAATTACAGTTGTGCCTTGCGTCATATGTGATCTGCTTATATGTATATGAAAAAAACTCATTATGAGTCAGTCTTGTATAACGTATTTAATACGGCCCTTTAATCAAACTACAAACACTTTTTTCAGGGGATTTCTGTGAA (double strand) [PSPPH_1024 promoter] | binds | 
4 | GATGGGTGTTCGGTGATGACTATATGACATCACGGAACCGACTTTAACAGATGAAAAAAATTCAATTACAGGCGAGGTACAGGTTGATCGGCCGCAGACGGCTACTTTTTAAGCGCTATCGGTCGCGCAGCCCCATAAGATAAAGGGCCTGCTCATTTGTATGCA (double strand) [PSPPH_4247 promoter] | binds | 
5 | CATAGGGGTTGCCAAATGTGTCGAATGCCCCATAAGGTAGCGCTGTCTCATGGAAGGTGACAATGCTTTAT (double strand) [gntR negative control] | no binding | 
6 | GTACCTGCCAGAATGTTGAGGGTGATATTGATCCATAACCTTAGCCTCCTACGCCTCTTTAGCTGGACAGCAAAAATTACCGAATTAGCTAAACATTAGGAATAATTCTAGCATTAGCTGTTCAGCTAACAAAGGCCTAAAAG (double strand) [PSPPH_0985 promoter] |  | binding [2]: binds
7 | GGTGCGGCATATCCCGTAGGCTCTGTCATTAAAAATGGCACAATTCTACTAGGCCGTCATTGCCTCCAACATGAATGATTTTCATGCAAAAGCCGCAGCACCACCAAAACCGTTCCGGTTTGCTATCATCCCGTTCTTTAAAGTA (double strand) [PSPPH_2621 promoter] | binds | 
